{"source": "paper PMC11945409", "key": {"[1]": {"molecular_target": "adaptor protein gp45 of siphophage T1 (phage T1 (ATCC 11303-B1))", "assay": "cryo-EM structure; head-connector complex of purified mature T1 virions; asymmetric reconstruction 8 Å; local reconstruction of the portal-adaptor complex 3.6 Å (twelvefold symmetry) and of the stopper-terminator-tube complex 3.6 Å (sixfold symmetry)"}, "[2]": {"molecular_target": "cement protein (CP) gp48 of siphophage T1 (phage T1 (ATCC 11303-B1))", "assay": "cryo-EM structure; icosahedral head of purified mature T1 virions (assembled in infected E. coli) in phage buffer (50 mM NaCl, 10 mM MgCl2, 10 mM Tris-HCl, pH 7.6); icosahedral reconstruction 4 Å, local reconstruction of the fivefold region 3.5 Å"}, "[3]": {"molecular_target": "cement protein (CP) gp49 of siphophage T1 (phage T1 (ATCC 11303-B1))", "assay": "cryo-EM structure; icosahedral head of purified mature T1 virions (assembled in infected E. coli) in phage buffer (50 mM NaCl, 10 mM MgCl2, 10 mM Tris-HCl, pH 7.6); icosahedral reconstruction 4 Å, local reconstruction of the fivefold region 3.5 Å"}, "[4]": {"molecular_target": "central fiber protein gp33 of siphophage T1 (phage T1 (ATCC 11303-B1))", "assay": "cryo-EM structure; tail tip of purified mature T1 virions (laboratory-adapted, no lateral fibers); 6.1 Å, after local refinement 4.3 Å, threefold symmetry imposed"}, "[5]": {"molecular_target": "distal tail protein gp37 of siphophage T1 (phage T1 (ATCC 11303-B1))", "assay": "cryo-EM structure; tail tip of purified mature T1 virions (laboratory-adapted, no lateral fibers); 6.1 Å, after local refinement 4.3 Å, threefold symmetry imposed"}, "[6]": {"molecular_target": "insertion protein gp34 of siphophage T1 (phage T1 (ATCC 11303-B1))", "assay": "cryo-EM structure; tail tip of purified mature T1 virions (laboratory-adapted, no lateral fibers); 6.1 Å, after local refinement 4.3 Å, threefold symmetry imposed"}, "[7]": {"molecular_target": "major capsid protein (MCP) gp47 of siphophage T1 (phage T1 (ATCC 11303-B1))", "assay": "cryo-EM structure; icosahedral head of purified mature T1 virions (assembled in infected E. coli) in phage buffer (50 mM NaCl, 10 mM MgCl2, 10 mM Tris-HCl, pH 7.6); icosahedral reconstruction 4 Å, local reconstruction of the fivefold region 3.5 Å"}, "[8]": {"molecular_target": "portal protein gp52 of siphophage T1 (phage T1 (ATCC 11303-B1))", "assay": "cryo-EM structure; head-connector complex of purified mature T1 virions; asymmetric reconstruction 8 Å; local reconstruction of the portal-adaptor complex 3.6 Å (twelvefold symmetry) and of the stopper-terminator-tube complex 3.6 Å (sixfold symmetry)"}, "[9]": {"molecular_target": "stopper protein gp44 of siphophage T1 (phage T1 (ATCC 11303-B1))", "assay": "cryo-EM structure; head-connector complex of purified mature T1 virions; asymmetric reconstruction 8 Å; local reconstruction of the portal-adaptor complex 3.6 Å (twelvefold symmetry) and of the stopper-terminator-tube complex 3.6 Å (sixfold symmetry)"}, "[10]": {"molecular_target": "tail terminator protein gp42 of siphophage T1 (phage T1 (ATCC 11303-B1))", "assay": "cryo-EM structure; head-connector complex of purified mature T1 virions; asymmetric reconstruction 8 Å; local reconstruction of the portal-adaptor complex 3.6 Å (twelvefold symmetry) and of the stopper-terminator-tube complex 3.6 Å (sixfold symmetry)"}, "[11]": {"molecular_target": "tail tube protein (TTP) gp41 of siphophage T1 (phage T1 (ATCC 11303-B1))", "assay": "cryo-EM structure; tail tube of purified mature T1 virions; 4.1 Å, sixfold symmetry imposed"}}, "note": "Values joined by “and” are separate entries in the source; they are usually repeats but may differ in a detail not shown here. Equal values may be shown once.", "data": [{"substance": "adaptor protein gp45 of siphophage T1 (natural protein)", "values": [{"measurement": "stoichiometry N", "setting": "[1]", "result": 12}]}, {"substance": "cement protein (CP) gp49 of siphophage T1 (natural protein)", "values": [{"measurement": "stoichiometry N (gp49 per gp48)", "setting": "[2]", "result": 2}, {"measurement": "stoichiometry N", "setting": "[3]", "result": 3}]}, {"substance": "central fiber protein gp33 of siphophage T1 (natural protein)", "values": [{"measurement": "stoichiometry N", "setting": "[4]", "result": 3}]}, {"substance": "distal tail protein gp37 of siphophage T1 (natural protein)", "values": [{"measurement": "stoichiometry N", "setting": "[5]", "result": 6}]}, {"substance": "insertion protein gp34 of siphophage T1 (natural protein)", "values": [{"measurement": "stoichiometry N", "setting": "[6]", "result": 3}]}, {"substance": "major capsid protein (MCP) gp47 of siphophage T1 (natural protein)", "values": [{"measurement": "stoichiometry N", "setting": "[7]", "result": "5 and 6"}, {"measurement": "stoichiometry N (copies in the head)", "setting": "[7]", "result": 415}]}, {"substance": "portal protein gp52 of siphophage T1 (natural protein)", "values": [{"measurement": "stoichiometry N", "setting": "[8]", "result": 12}]}, {"substance": "stopper protein gp44 of siphophage T1 (natural protein)", "values": [{"measurement": "stoichiometry N", "setting": "[9]", "result": 6}]}, {"substance": "tail terminator protein gp42 of siphophage T1 (natural protein)", "values": [{"measurement": "stoichiometry N", "setting": "[10]", "result": 6}]}, {"substance": "tail tube protein (TTP) gp41 of siphophage T1 (natural protein)", "values": [{"measurement": "stoichiometry N", "setting": "[11]", "result": 6}]}]}
